Results on 4 molecules are retold here after PMC5967339, “Rhodopsin-cyclases for photocontrol of cGMP/cAMP and 2.3 Å structure of the adenylyl cyclase domain” (Nature Communications, 2018).

The test system of one series is CaRhGC. The series can be described thus: RP-HPLC of cGMP, initial rates, Hill fit. It is filed as biochemical, Catenaria anguillulae. The conditions noted are these: GTP/Mn2+, pH 7.5, 22 °C, 522 nm light 0.010 mW mm^-2, dark activity subtracted, detergent. The text has this:
RP-HPLC of cGMP, initial rates, Hill fit on CaRhGC

In series [1] the test system is T1, Nc1ncnc2c1ncn2[C@@H]1O[C@H](COP(=O)(O)OP(=O)(O)OP(=O)(O)O)[C@@H](O)[C@H]1O.
T1 construct: CaAC is a homodimer in the crystal
The series is described as follows: RP-HPLC of cAMP, initial rates, Hill fit. The conditions noted are these: ATP/Mn2+, pH 7.5, 22 °C. It counts as biochemical, Catenaria anguillulae. The text has this: RP-HPLC of cAMP, initial rates, Hill fit on CaGC (mutant form: CaAC)

Substrate in series [2]: Nc1nc2c(ncn2[C@@H]2O[C@H](COP(=O)(O)OP(=O)(O)OP(=O)(O)O)[C@@H](O)[C@H]2O)c(=O)[nH]1
The series can be described thus: RP-HPLC of cGMP, initial rates, Hill fit. It is filed as biochemical, Blastocladiella emersonii. The conditions noted are these: GTP/Mn2+, pH 7.5, 22 °C. The text has this:
RP-HPLC of cGMP, initial rates, Hill fit on BeGC

Substrate in series [3]: Nc1nc2c(ncn2[C@@H]2O[C@H](COP(=O)(O)OP(=O)(O)OP(=O)(O)O)[C@@H](O)[C@H]2O)c(=O)[nH]1
The series can be described thus: RP-HPLC of cGMP, initial rates, Hill fit. It counts as biochemical, Blastocladiella emersonii. The note with it: GTP/Mn2+, pH 7.5, 22 °C, 522 nm light 0.010 mW mm^-2, dark activity subtracted, detergent. The source says: RP-HPLC of cGMP, initial rates, Hill fit on BeRhGC

As for `Nc1nc2c(ncn2[C@@H]2O[C@H](COP(=O)(O)OP(=O)(O)OP(=O)(O)O)[C@@H](O)[C@H]2O)c(=O)[nH]1` [GTP], in the series with CaRhGC, the Michaelis constant (Km) – broadly, the concentration of substrate that gives half-maximal velocity – stood at 6.1 ± 5.59 mM.
“CaGC (mutant form: CaAC) (Catenaria anguillulae PL171; C201D/E132K)”: in series [1], the Km amounted to 6.09 ± 1.74 mM; the kcat (as a rule, the number of substrate molecules converted per active site and unit of time at saturation) turned out to be 1.012 s⁻¹; the kcat/Km (as a rule, the second-order rate constant that governs catalysis at low substrate concentration) is 170 M⁻¹ s⁻¹.

B1: BeGC (Blastocladiella emersonii) (protein)
chain: TEAKEYESVTVFFSDITNFTVISSRTSTKDMMATLNKLWLEYDAIAKRWGVYKVETIGDAYLGVTGAPDVVPDHAERACNFAVDIIEMIKSFKTITGESINIRIGLNSGPVTAGVLGDLNPHWCLVGDTVNTASRMESTSKAGHIHISESTYHFIKSKFVTQPLDVMEVKGKGKMQTYWVLGRK
As for B1, in series [2], the Km was found to be 2.16 ± 0.30 mM, the turnover number (kcat) was 0.339 s⁻¹ and the kcat/Km was determined as 160 M⁻¹ s⁻¹.

B2: BeRhGC (Blastocladiella emersonii) (protein)
chain: MKDKDNNLRGACSSCNCPEYCFSPTSTLCDDCKCSVTKHPIVEQPLSRNGSFRSSGASLLPSPSSPNVKITSTVGLRSRKSESQANVRGSMISNSNSGSRSNNSGGAGGGSGGSSSSKGGSALANYQSAMSELWSWNMMLSTPSLKFLTVQFTTWIVLTTVGAIYTLFFHERQAYNRGWADIWYGYGAFGFGLGLSFAYMGFTGARNPEKKALSLCLLGVNFISFMSYIIIMLRLTPTIEGTMANPVEPARYLEWIATCPVLILLISEITQYPHDPYKVIVNDYALCLAGFVGAISAQQPWGDLAHFVSCLCFSYVVYSLWSCFTGAIDGETQCNVEKSGLRWIRFSTITTWSLFPITWFSYTSGLISFTVAEAGFSMIDIGAKVFLTLVLVNSTVEQAQNQKVDAITAIAEELENQINNCDAILQKMMPEGVLEQLKNGQATEAKEYESVTVFFSDITNFTVISSRTSTKDMMATLNKLWLEYDAIAKRWGVYKVETIGDAYLGVTGAPDVVPDHAERACNFAVDIIEMIKSFKTITGESINIRIGLNSGPVTAGVLGDLNPHWCLVGDTVNTASRMESTSKAGHIHISESTYHFIKSKFVTQPLDVMEVKGKGKMQTYWVLGRK
For the molecule B2, in series [3], the Michaelis constant (Km) is 0.92 ± 0.27 mM, the kcat stood at 1.07 s⁻¹ and the specificity constant (kcat/Km) came to 1200 M⁻¹ s⁻¹.
